Target: UapA K73A/R133A/R421A/T401P, purified, detergent-solubilized (Aspergillus nidulans) (UniProt Q07307)
Experiment: native MS

Work on “UapA K73A/R133A/R421A/T401P, purified, detergent-solubilized (from UniProt Q07307 1-574) (natural protein)” yielded a stoichiometry N of 2.

Reference: publication doi:10.1101/710897
